Data reported in the supplement of paper PMC6757056.
± gives the standard deviation of the averaged measurements.

B1: library; a variant is named by its letters at N, in order (parent)
chain: GCUGUCACCGGUGUAUUACCCUAGUGGUCGACCGGUCUGAUGAGUCUNNNNNNAGACGAAACAGC

Experiments:
[1] = variants of: B1; experiment: normalized RNA/DNA level with ligand (relative to sTRSVctl = 100) (log10 (% of sTRSVctl)); ligand: hypoxanthine (xanthine aptamer); higher = less ribozyme self-cleavage, higher mRNA level; conditions: ligand concentration (+) RNA-Seq: 5 mM, HEK293T, reporter: mCherry (pCS4076), ligand present: yes
Procedure, shortened: (§1)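 Ribozyme switch library plasmids with mCherry reporters (eGFP in certain ligand experiments) went into HEK293T cells at 4 µg per 6-well well. Where ligand was used, it was applied 1 h before transfection, and total RNA was extracted with EDTA 72 h later for reverse transcription, amplification, barcoding and sequencing. RNA level is the RNA-to-DNA read ratio normalized to a spiked-in non-cleaving sequence or to the leading sequences, then scaled and log-transformed. Scaling was ×100 with log10, the leading set comprised 25 sequences, and the cutoff was ≥100 DNA reads.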

[2] = variants of: B1; experiment: normalized RNA/DNA level without ligand (relative to sTRSVctl = 100) (log10 (% of sTRSVctl)); ligand: hypoxanthine (xanthine aptamer); higher = less ribozyme self-cleavage, higher mRNA level; conditions: HEK293T, reporter: mCherry (pCS4076), ligand present: no
Procedure, shortened: as §1

Row | Variant | normalized RNA/DNA level with ligand (log10) [1] | normalized RNA/DNA level without ligand (log10) [2]
1 | GCUGUCACCGGUGUAUUACCCUAGUGGUCGACCGGUCUGAUGAGUCUUAGGAGAGACGAAACAGC [UAGGAG] | 1.872 ± 0.018 | 1.41 ± 0.04
2 | GCUGUCACCGGUGUAUUACCCUAGUGGUCGACCGGUCUGAUGAGUCUCAGCUAAGACGAAACAGC [CAGCUA] | 1.903 ± 0.012 | 1.65 ± 0.056
3 | GCUGUCACCGGUGUAUUACCCUAGUGGUCGACCGGUCUGAUGAGUCUCAGCUUAGACGAAACAGC [CAGCUU] | 1.954 ± 0.0095 | 1.86 ± 0.027
4 | GCUGUCACCGGUGUAUUACCCUAGUGGUCGACCGGUCUGAUGAGUCUCAGCUGAGACGAAACAGC [CAGCUG] | 1.946 ± 0.019 | 1.89 ± 0.028
5 | GCUGUCACCGGUGUAUUACCCUAGUGGUCGACCGGUCUGAUGAGUCUUAGCUGAGACGAAACAGC [UAGCUG] | 1.944 ± 0.011 | 1.77 ± 0.02
6 | GCUGUCACCGGUGUAUUACCCUAGUGGUCGACCGGUCUGAUGAGUCUUAGCUUAGACGAAACAGC [UAGCUU] | 2.003 ± 0.015 | 1.84 ± 0.024
7 | GCUGUCACCGGUGUAUUACCCUAGUGGUCGACCGGUCUGAUGAGUCUUAGCUAAGACGAAACAGC [UAGCUA] | 1.96 ± 0.078 | 1.884 ± 0.0057
8 | GCUGUCACCGGUGUAUUACCCUAGUGGUCGACCGGUCUGAUGAGUCUUAGCUCAGACGAAACAGC [UAGCUC] | 1.98 ± 0.034 | 2.03 ± 0.038
9 | GCUGUCACCGGUGUAUUACCCUAGUGGUCGACCGGUCUGAUGAGUCUUAGCGCAGACGAAACAGC [UAGCGC] | 1.95 ± 0.023 | 1.85 ± 0.057
10 | GCUGUCACCGGUGUAUUACCCUAGUGGUCGACCGGUCUGAUGAGUCUUAGCGUAGACGAAACAGC [UAGCGU] | 1.88 ± 0.055 | 1.46 ± 0.12
11 | GCUGUCACCGGUGUAUUACCCUAGUGGUCGACCGGUCUGAUGAGUCUAAGCUCAGACGAAACAGC [AAGCUC] | 1.975 ± 0.002 | 1.959 ± 0.01
12 | GCUGUCACCGGUGUAUUACCCUAGUGGUCGACCGGUCUGAUGAGUCUAAGCUAAGACGAAACAGC [AAGCUA] | 1.91 ± 0.021 | 1.68 ± 0.056
13 | GCUGUCACCGGUGUAUUACCCUAGUGGUCGACCGGUCUGAUGAGUCUAAGCUUAGACGAAACAGC [AAGCUU] | 1.94 ± 0.062 | 1.86 ± 0.023
14 | GCUGUCACCGGUGUAUUACCCUAGUGGUCGACCGGUCUGAUGAGUCUCAGGACAGACGAAACAGC [CAGGAC] | 1.88 ± 0.063 | 1.782 ± 0.01
15 | GCUGUCACCGGUGUAUUACCCUAGUGGUCGACCGGUCUGAUGAGUCUCAGGAGAGACGAAACAGC [CAGGAG] | 1.91 ± 0.022 | 1.473 ± 0.012
16 | GCUGUCACCGGUGUAUUACCCUAGUGGUCGACCGGUCUGAUGAGUCUUAGCCUAGACGAAACAGC [UAGCCU] | 2 ± 0.037 | 1.953 ± 0.006
17 | GCUGUCACCGGUGUAUUACCCUAGUGGUCGACCGGUCUGAUGAGUCUUAGCCGAGACGAAACAGC [UAGCCG] | 1.982 ± 0.016 | 1.728 ± 0.0043
18 | GCUGUCACCGGUGUAUUACCCUAGUGGUCGACCGGUCUGAUGAGUCUAAGGCCAGACGAAACAGC [AAGGCC] | 1.96 ± 0.066 | 1.9104 ± 0.0016
19 | GCUGUCACCGGUGUAUUACCCUAGUGGUCGACCGGUCUGAUGAGUCUAAGGCAAGACGAAACAGC [AAGGCA] | 1.94 ± 0.035 | 1.64 ± 0.043
20 | GCUGUCACCGGUGUAUUACCCUAGUGGUCGACCGGUCUGAUGAGUCUAAGGCUAGACGAAACAGC [AAGGCU] | 1.9 ± 0.032 | 1.83 ± 0.05
21 | GCUGUCACCGGUGUAUUACCCUAGUGGUCGACCGGUCUGAUGAGUCUGAGCGUAGACGAAACAGC [GAGCGU] | 1.915 ± 0.0047 | 1.647 ± 0.0019
